Test results as given in PMC11653614.
“And” between values parts separate entries of the source, which are not always exact repeats. Equal values may be shown once.

Target: Pyruvate kinase M2 (mouse (endogenous in mouse skin)) (UniProt P52480)
Assay: not stated; detection of dimeric and tetrameric PKM2 protein levels in the skin from sham and skin flap mice on postoperative day 7

Pyruvate kinase M2, P52480 1-531 (enzyme; other documents disagree on this pair), sequence (P52480 whole entry): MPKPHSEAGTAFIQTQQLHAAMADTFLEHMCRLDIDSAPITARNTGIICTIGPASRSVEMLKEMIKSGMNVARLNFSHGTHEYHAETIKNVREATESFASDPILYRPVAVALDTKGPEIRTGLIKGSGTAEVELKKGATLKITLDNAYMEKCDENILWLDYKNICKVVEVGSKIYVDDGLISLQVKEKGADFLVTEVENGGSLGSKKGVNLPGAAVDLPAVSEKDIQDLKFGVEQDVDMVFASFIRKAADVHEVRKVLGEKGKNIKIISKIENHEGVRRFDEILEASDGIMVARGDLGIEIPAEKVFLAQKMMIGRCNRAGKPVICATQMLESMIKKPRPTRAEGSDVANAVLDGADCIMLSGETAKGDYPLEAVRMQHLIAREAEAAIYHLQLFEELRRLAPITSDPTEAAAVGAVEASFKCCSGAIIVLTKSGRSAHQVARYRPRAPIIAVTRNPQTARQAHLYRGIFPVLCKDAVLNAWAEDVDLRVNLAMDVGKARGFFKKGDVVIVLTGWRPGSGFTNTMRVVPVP

With “Pyruvate kinase M2, P52480 1-531 (enzyme; other documents disagree on this pair)” the stoichiometry N was 4 and 2.
